Assay results taken from IntAct's records for PubMed 16325581.

B1: SH3 domain-binding protein 4 (Homo sapiens), Q9P0V3 (parent)
chain: MAAQRIRAANSNGLPRCKSEGTLIDLSEGFSETSFNDIKVPSPSALLVDNPTPFGNAKEVIAIKDYCPTNFTTLKFSKGDHLYVLDTSGGEWWYAHNTTEMGYIPSSYVQPLNYRNSTLSDSGMIDNLPDSPDEVAKELELLGGWTDDKKVPGRMYSNNPFWNGVQTNPFLNGNVPVMPSLDELNPKSTVDLLLFDAGTSSFTESSSATTNSTGNIFDELPVTNGLHAEPPVRRDNPFFRSKRSYSLSELSVLQAKSDAPTSSSFFTGLKSPAPEQFQSREDFRTAWLNHRKLARSCHDLDLLGQSPGWGQTQAVETNIVCKLDSSGGAVQLPDTSISIHVPEGHVAPGETQQISMKALLDPPLELNSDRSCSISPVLEVKLSNLEVKTSIILEMKVSAEIKNDLFSKSTVGLQCLRSDSKEGPYVSVPLNCSCGDTVQAQLHNLEPCMYVAVVAHGPSILYPSTVWDFINKKVTVGLYGPKHIHPSFKTVVTIFGHDCAPKTLLVSEVTRQAPNPAPVALQLWGKHQFVLSRPQDLKVCMFSNMTNYEVKASEQAKVVRGFQLKLGKVSRLIFPITSQNPNELSDFTLRVQVKDDQEAILTQFCVQTPQPPPKSAIKPSGQRRFLKKNEVGKIILSPFATTTKYPTFQDRPVSSLKFGKLLKTVVRQNKNHYLLEYKKGDGIALLSEERVRLRGQLWTKEWYIGYYQGRVGLVHTKNVLVVGRARPSLCSGPELSTSVLLEQILRPCKFLTYIYASVRTLLMENISSWRSFADALGYVNLPLTFFCRAELDSEPERVASVLEKLKEDCNNTENKERKSFQKELVMALLKMDCQGLVVRLIQDFVLLTTAVEVAQRWRELAEKLAKVSKQQMDAYESPHRDRNGVVDSEAMWKPAYDFLLTWSHQIGDSYRDVIQELHLGLDKMKNPITKRWKHLTGTLILVNSLDVLRAAAFSPADQDDFVI
partner: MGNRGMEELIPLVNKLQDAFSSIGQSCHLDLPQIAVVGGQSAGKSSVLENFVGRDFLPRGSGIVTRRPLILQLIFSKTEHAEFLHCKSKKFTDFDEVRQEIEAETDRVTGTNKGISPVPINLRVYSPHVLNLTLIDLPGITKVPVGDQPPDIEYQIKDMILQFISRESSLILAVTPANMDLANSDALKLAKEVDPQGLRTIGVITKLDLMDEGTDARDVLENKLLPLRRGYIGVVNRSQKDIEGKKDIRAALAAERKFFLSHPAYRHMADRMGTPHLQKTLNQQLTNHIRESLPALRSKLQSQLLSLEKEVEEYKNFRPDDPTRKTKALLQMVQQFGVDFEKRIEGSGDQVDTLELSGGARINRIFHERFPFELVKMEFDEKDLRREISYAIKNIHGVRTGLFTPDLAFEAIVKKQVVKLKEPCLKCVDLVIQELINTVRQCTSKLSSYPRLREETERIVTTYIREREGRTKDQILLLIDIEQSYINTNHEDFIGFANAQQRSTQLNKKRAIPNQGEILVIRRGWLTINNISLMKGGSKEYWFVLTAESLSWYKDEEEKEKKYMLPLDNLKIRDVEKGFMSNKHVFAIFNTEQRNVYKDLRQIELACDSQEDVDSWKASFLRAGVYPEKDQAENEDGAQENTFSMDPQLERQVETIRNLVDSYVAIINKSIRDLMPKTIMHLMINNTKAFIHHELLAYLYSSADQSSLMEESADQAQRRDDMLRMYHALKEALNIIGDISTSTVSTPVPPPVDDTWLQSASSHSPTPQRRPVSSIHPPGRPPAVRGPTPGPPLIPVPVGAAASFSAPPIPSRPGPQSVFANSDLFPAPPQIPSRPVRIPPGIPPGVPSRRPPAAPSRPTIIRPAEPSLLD
B2: SH3 domain-binding protein 4 (Homo sapiens), Q9P0V3 (parent)
chain: B1 chain

Variants of: B1
Details: with dyn2_human DNM2, P50570

Row | effect of a mutation on the interaction | Variant
1 | disrupting interaction | W92A

Variants of: B2
Details: with tfr1_human TFRC

Row | effect of a mutation on the interaction | Variant
2 | disrupting interaction | W92A
